Reference: paper PMC7781312 (bioRxiv, 2021)
Non-standard residues stand in square brackets, D forms with d. Primed or numbered codes have the meaning given here. No end group written: not given here. PEG6′ = PEG spacer between stem peptide and Lys-biotin; Biotin′ = not defined here

Key:
[1] = target: T1, biotinylated HKU4 S stem helix peptide (Bat coronavirus HKU4 (A3EX94), UniProt A3EX94); experiment: BLI
T1 chain: DFKDELEEFFKNVTS[PEG6′]K-{Biotin′}

[2] = target: T2, biotinylated MERS-CoV S stem helix peptide (MERS-CoV EMC/2012 (AFS88936), UniProt K0BRG7); experiment: BLI
T2 chain: DFQDELDEFFKNVST[PEG6′]K-{Biotin′}

[3] = target: T3, biotinylated HKU5 S stem helix peptide (Bat coronavirus HKU5 (A3EXD0), UniProt A3EXD0); experiment: BLI
T3 chain: DFKEELEEFFKNVSS[PEG6′]K-{Biotin′}

[4] = target: T4, biotinylated mouse hepatitis virus S stem helix peptide (Murine hepatitis virus A59 (P11224), UniProt P11224); experiment: BLI
T4 chain: DFKEELDKWFKNQTS[PEG6′]K-{Biotin′}

[5] = target: T5, biotinylated SARS-CoV/SARS-CoV-2 S stem helix peptide (SARS-CoV-2 / SARS-CoV, identical …, UniProt P0DTC2); experiment: BLI
T5 chain: SFKEELDKYFKNHTS[PEG6′]K-{Biotin′}

[6] = target: T6, biotinylated OC43 S stem helix peptide (HCoV-OC43 (Q696P8), UniProt Q696P8); experiment: BLI
T6 chain: DFKEELDQWFKNQTS[PEG6′]K-{Biotin′}

[7] = target: T7, MERS-CoV S stem helix peptide, residues 1230-1244 (crystallised) (MERS-CoV, UniProt K9N5Q8); experiment: crystal structure
T7 chain: DFQDELDEFFKNVST

[8] = target: T8, SARS-CoV/SARS-CoV-2 S stem helix peptide (crystallised) (SARS-CoV-2 / SARS-CoV, identical …, UniProt P0DTC2); experiment: crystal structure
T8 chain: SFKEELDKYFKNHTS

[9] = target: T9, MERS-CoV S stem helix peptide, residues 1230-1240 (crystallised) (MERS-CoV (EMC/2012 numbering), UniProt K9N5Q8); experiment: crystal structure
T9 chain: DFQDELDEFFK

[10] = target: T10, HKU4 S stem helix peptide, residues 1231-1245 (crystallised) (bat coronavirus HKU4, UniProt A3EX94); experiment: crystal structure
T10 chain: DFKDELEEFFKNVTS

Measured: binding result

B1: B6 monoclonal antibody (recombinant IgG with human constant regions) (antibody, V domains shown)
VH: EVQLQQSGPVLVKPGASVRMSCKASGYTITDYYLNWVKQSHGKSLEWLGVLNPYSGGSLYSQTFKGKATLTVDRSSSTAYLELNSLTSEDSAVYYCARQLGRGNGLDYWGQGTSVTVSS
VL: NIMMTQSPSSLAVSAGEKVTMSCKSSQSVLHSSDQKNYLAWYQQKPGQSPKLLIYWASTRESGVPDRFTGSGSGTDFTLTISSVQAEDLAVYFCHQYLSSYTFGGGTKLEIK
binds: [1] | [2] | [3] | [4] | [5] | [6]

B2: B6 Fab fragment (Fab, V domains shown)
VH: EVQLQQSGPVLVKPGASVRMSCKASGYTITDYYLNWVKQSHGKSLEWLGVLNPYSGGSLYSQTFKGKATLTVDRSSSTAYLELNSLTSEDSAVYYCARQLGRGNGLDYWGQGTSVTVSS
VL: NIMMTQSPSSLAVSAGEKVTMSCKSSQSVLHSSDQKNYLAWYQQKPGQSPKLLIYWASTRESGVPDRFTGSGSGTDFTLTISSVQAEDLAVYFCHQYLSSYTFGGGTKLEIK
binds: all assays above
